Laboratory results reported in publication PMC9299608, “A Multi‐enzyme Cascade for the Biosynthesis of AICA Ribonucleoside Di‐ and Triphosphate” (Chembiochem, 2021).
Each block holds one molecule with its values, some of them ahead of it.

Columns and labels:
MrPPK = target: T1, MrPPK (Meiothermus ruber, UniProt M9XB82); assay: HPLC product quantification, Michaelis-Menten fit limited to data without substrate inhibition; type: biochemical; details: sodium polyphosphate as phosphate donor (standard assay 5 mM), MgCl2 20 mM, tris pH 8.0, 40 °C; not a true KM; reduced activity above 14 mM substrate
T1 construct: gene K649_10090; expressed in E. coli SHuffle T7 Express; IMAC and desalting
T1 sequence (M9XB82 1-267): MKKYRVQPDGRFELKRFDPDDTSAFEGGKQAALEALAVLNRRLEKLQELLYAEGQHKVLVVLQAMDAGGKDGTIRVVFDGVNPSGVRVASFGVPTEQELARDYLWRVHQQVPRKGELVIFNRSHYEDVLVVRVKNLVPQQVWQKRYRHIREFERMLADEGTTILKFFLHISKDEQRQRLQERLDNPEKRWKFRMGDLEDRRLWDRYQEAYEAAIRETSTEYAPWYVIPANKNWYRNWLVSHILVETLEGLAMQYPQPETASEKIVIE
Description: HPLC product quantification, Michaelis-Menten fit limited to data without substrate inhibition on MrPPK

[1] = system: NC(=O)c1ncn([C@@H]2O[C@H](COP(=O)(O)O)[C@@H](O)[C@H]2O)c1N; assay: purified protein; details: sodium polyphosphate as phosphate donor (standard assay 5 mM), MgCl2 20 mM, tris pH 8.0, 30 °C
[2] = substrate: NC(=O)c1[nH]cnc1N; assay: HPLC product quantification, Michaelis-Menten fit; type: biochemical, Escherichia coli; details: co-substrate PRPP, MgCl2 20 mM, tris pH 8.0, standard assay 40 °C (kinetics under conditions optimized for each cascade), text b32 gives 6.2
Description: HPLC product quantification, Michaelis-Menten fit on EcAPT

Km (MrPPK): > 8.6 mM
Molecule: NC(=O)c1ncn([C@@H]2O[C@H](COP(=O)(O)O)[C@@H](O)[C@H]2O)c1N [ZMP]

Molecule: AjPPK (Acinetobacter johnsonii)
Km [1]: 8.2 ± 1.4 mmol/L
Vmax [1]: 67 µmol/min/mg

B1: EcAPT (Escherichia coli K-12) (protein)
chain: MTATAQQLEYLKNSIKSIQDYPKPGILFRDVTSLLEDPKAYALSIDLLVERYKNAGITKVVGTEARGFLFGAPVALGLGVGFVPVRKPGKLPRETISETYDLEYGTDQLEIHVDAIKPGDKVLVVDDLLATGGTIEATVKLIRRLGGEVADAAFIINLFDLGGEQRLEKQGITSYSLVPFPGH
notes: expressed in E. coli BL21(DE3); IMAC and desalting
Km [2]: 6.3 ± 2.3 mmol/L
Vmax [2]: 8.6 µmol/min/mg
